# Data reported in patent publication US20230357348A1 (AstraZeneca / MedImmune, published 2023).
# Starred links: 1 amine or outer side, 2 acyl side, 3 side chain; linkers in the order of their positions; H or OH if unused. Non-standard residues stand in square brackets, D forms with d. Groups on a side chain read outwards from the residue. No end group written: not given here. *: point of attachment. C18 diacid = O=C(O)CCCCCCCCCCCCCCCCC(=O)*; γGlu = O=C(O)[C@H](CCC(=O)[*:2])N[*:1]; αMeF = C[C@](N)(Cc1ccccc1)C(=O)O; AEEA = NCCOCCOCC(=O)O; Aib = CC(C)(N)C(=O)O
# B1: Peptide 145 (peptide)
# peptide: H[Aib]QGTFTSDVSK[αMeF]LDSK([AEEA-AEEA-γGlu-C18 diacid])RAQDFVRWLASRGI-OH
# modifications: N-terminus assumed
# SMILES: CC[C@H](C)[C@H](NC(=O)CNC(=O)[C@H](CCCNC(=N)N)NC(=O)[C@H](CO)NC(=O)[C@H](C)NC(=O)[C@H](CC(C)C)NC(=O)[C@H](Cc1c[nH]c2ccccc12)NC(=O)[C@H](CCCNC(=N)N)NC(=O)[C@@H](NC(=O)[C@H](Cc1ccccc1)NC(=O)[C@H](CC(=O)O)NC(=O)[C@H](CCC(N)=O)NC(=O)[C@H](C)NC(=O)[C@H](CCCNC(=N)N)NC(=O)[C@H](CCCCNC(=O)COCCOCCNC(=O)COCCOCCNC(=O)CC[C@H](NC(=O)CCCCCCCCCCCCCCCCC(=O)O)C(=O)O)NC(=O)[C@H](CO)NC(=O)[C@H](CC(=O)O)NC(=O)[C@H](CC(C)C)NC(=O)[C@](C)(Cc1ccccc1)NC(=O)[C@H](CCCCN)NC(=O)[C@H](CO)NC(=O)[C@@H](NC(=O)[C@H](CC(=O)O)NC(=O)[C@H](CO)NC(=O)[C@@H](NC(=O)[C@H](Cc1ccccc1)NC(=O)[C@@H](NC(=O)CNC(=O)[C@H](CCC(N)=O)NC(=O)C(C)(C)NC(=O)[C@@H](N)Cc1c[nH]cn1)[C@@H](C)O)[C@@H](C)O)C(C)C)C(C)C)C(=O)O
# B2: Peptide 148 (peptide)
# peptide: H[Aib]QGTFTSDVSK[αMeF]LDSK([AEEA-AEEA-γGlu-C18 diacid])RAQDFVRWIAE[Aib]G-OH
# modifications: N-terminus assumed
# SMILES: CC[C@H](C)[C@H](NC(=O)[C@H](Cc1c[nH]c2ccccc12)NC(=O)[C@H](CCCNC(=N)N)NC(=O)[C@@H](NC(=O)[C@H](Cc1ccccc1)NC(=O)[C@H](CC(=O)O)NC(=O)[C@H](CCC(N)=O)NC(=O)[C@H](C)NC(=O)[C@H](CCCNC(=N)N)NC(=O)[C@H](CCCCNC(=O)COCCOCCNC(=O)COCCOCCNC(=O)CC[C@H](NC(=O)CCCCCCCCCCCCCCCCC(=O)O)C(=O)O)NC(=O)[C@H](CO)NC(=O)[C@H](CC(=O)O)NC(=O)[C@H](CC(C)C)NC(=O)[C@](C)(Cc1ccccc1)NC(=O)[C@H](CCCCN)NC(=O)[C@H](CO)NC(=O)[C@@H](NC(=O)[C@H](CC(=O)O)NC(=O)[C@H](CO)NC(=O)[C@@H](NC(=O)[C@H](Cc1ccccc1)NC(=O)[C@@H](NC(=O)CNC(=O)[C@H](CCC(N)=O)NC(=O)C(C)(C)NC(=O)[C@@H](N)Cc1c[nH]cn1)[C@@H](C)O)[C@@H](C)O)C(C)C)C(C)C)C(=O)N[C@@H](C)C(=O)N[C@@H](CCC(=O)O)C(=O)NC(C)(C)C(=O)NCC(=O)O
# B3: Peptide 149 (peptide)
# peptide: H[Aib]QGTFTSDVSK[αMeF]LDSK([AEEA-AEEA-γGlu-C18 diacid])RAQDFVRWVVE[Aib]G-OH
# modifications: N-terminus assumed
# SMILES: CC(C)C[C@H](NC(=O)[C@](C)(Cc1ccccc1)NC(=O)[C@H](CCCCN)NC(=O)[C@H](CO)NC(=O)[C@@H](NC(=O)[C@H](CC(=O)O)NC(=O)[C@H](CO)NC(=O)[C@@H](NC(=O)[C@H](Cc1ccccc1)NC(=O)[C@@H](NC(=O)CNC(=O)[C@H](CCC(N)=O)NC(=O)C(C)(C)NC(=O)[C@@H](N)Cc1c[nH]cn1)[C@@H](C)O)[C@@H](C)O)C(C)C)C(=O)N[C@@H](CC(=O)O)C(=O)N[C@@H](CO)C(=O)N[C@@H](CCCCNC(=O)COCCOCCNC(=O)COCCOCCNC(=O)CC[C@H](NC(=O)CCCCCCCCCCCCCCCCC(=O)O)C(=O)O)C(=O)N[C@@H](CCCNC(=N)N)C(=O)N[C@@H](C)C(=O)N[C@@H](CCC(N)=O)C(=O)N[C@@H](CC(=O)O)C(=O)N[C@@H](Cc1ccccc1)C(=O)N[C@H](C(=O)N[C@@H](CCCNC(=N)N)C(=O)N[C@@H](Cc1c[nH]c2ccccc12)C(=O)N[C@H](C(=O)N[C@H](C(=O)N[C@@H](CCC(=O)O)C(=O)NC(C)(C)C(=O)NCC(=O)O)C(C)C)C(C)C)C(C)C
# B4: Peptide 147 (peptide)
# peptide: H[Aib]QGTFTSDVSK[αMeF]LDSK([AEEA-AEEA-γGlu-C18 diacid])RAQDFVRWLEA[Aib]G-OH
# modifications: N-terminus assumed
# SMILES: CC(C)C[C@H](NC(=O)[C@H](Cc1c[nH]c2ccccc12)NC(=O)[C@H](CCCNC(=N)N)NC(=O)[C@@H](NC(=O)[C@H](Cc1ccccc1)NC(=O)[C@H](CC(=O)O)NC(=O)[C@H](CCC(N)=O)NC(=O)[C@H](C)NC(=O)[C@H](CCCNC(=N)N)NC(=O)[C@H](CCCCNC(=O)COCCOCCNC(=O)COCCOCCNC(=O)CC[C@H](NC(=O)CCCCCCCCCCCCCCCCC(=O)O)C(=O)O)NC(=O)[C@H](CO)NC(=O)[C@H](CC(=O)O)NC(=O)[C@H](CC(C)C)NC(=O)[C@](C)(Cc1ccccc1)NC(=O)[C@H](CCCCN)NC(=O)[C@H](CO)NC(=O)[C@@H](NC(=O)[C@H](CC(=O)O)NC(=O)[C@H](CO)NC(=O)[C@@H](NC(=O)[C@H](Cc1ccccc1)NC(=O)[C@@H](NC(=O)CNC(=O)[C@H](CCC(N)=O)NC(=O)C(C)(C)NC(=O)[C@@H](N)Cc1c[nH]cn1)[C@@H](C)O)[C@@H](C)O)C(C)C)C(C)C)C(=O)N[C@@H](CCC(=O)O)C(=O)N[C@@H](C)C(=O)NC(C)(C)C(=O)NCC(=O)O
# B5: Peptide 146 (peptide)
# peptide: H[Aib]QGTFTSDVSK[αMeF]LDSK([AEEA-AEEA-γGlu-C18 diacid])RAQDFVRWLASR-OH
# modifications: N-terminus assumed
# SMILES: CC(C)C[C@H](NC(=O)[C@H](Cc1c[nH]c2ccccc12)NC(=O)[C@H](CCCNC(=N)N)NC(=O)[C@@H](NC(=O)[C@H](Cc1ccccc1)NC(=O)[C@H](CC(=O)O)NC(=O)[C@H](CCC(N)=O)NC(=O)[C@H](C)NC(=O)[C@H](CCCNC(=N)N)NC(=O)[C@H](CCCCNC(=O)COCCOCCNC(=O)COCCOCCNC(=O)CC[C@H](NC(=O)CCCCCCCCCCCCCCCCC(=O)O)C(=O)O)NC(=O)[C@H](CO)NC(=O)[C@H](CC(=O)O)NC(=O)[C@H](CC(C)C)NC(=O)[C@](C)(Cc1ccccc1)NC(=O)[C@H](CCCCN)NC(=O)[C@H](CO)NC(=O)[C@@H](NC(=O)[C@H](CC(=O)O)NC(=O)[C@H](CO)NC(=O)[C@@H](NC(=O)[C@H](Cc1ccccc1)NC(=O)[C@@H](NC(=O)CNC(=O)[C@H](CCC(N)=O)NC(=O)C(C)(C)NC(=O)[C@@H](N)Cc1c[nH]cn1)[C@@H](C)O)[C@@H](C)O)C(C)C)C(C)C)C(=O)N[C@@H](C)C(=O)N[C@@H](CO)C(=O)N[C@@H](CCCNC(=N)N)C(=O)O
# Target: human GLP-1 receptor (hGLP-1R) (human, UniProt P43220 24-463)
# Experiment: cell-based or functional assay
row,Binder,hGLP-1R EC50 (pM)
1,B1,22.6
2,B2,40.2
3,B3,8.71
4,B4,15.3
5,B5,24.6

# Target: human glucagon receptor (hGCGR) (human, UniProt P47871 26-477)
# Sequence (P47871 26-477): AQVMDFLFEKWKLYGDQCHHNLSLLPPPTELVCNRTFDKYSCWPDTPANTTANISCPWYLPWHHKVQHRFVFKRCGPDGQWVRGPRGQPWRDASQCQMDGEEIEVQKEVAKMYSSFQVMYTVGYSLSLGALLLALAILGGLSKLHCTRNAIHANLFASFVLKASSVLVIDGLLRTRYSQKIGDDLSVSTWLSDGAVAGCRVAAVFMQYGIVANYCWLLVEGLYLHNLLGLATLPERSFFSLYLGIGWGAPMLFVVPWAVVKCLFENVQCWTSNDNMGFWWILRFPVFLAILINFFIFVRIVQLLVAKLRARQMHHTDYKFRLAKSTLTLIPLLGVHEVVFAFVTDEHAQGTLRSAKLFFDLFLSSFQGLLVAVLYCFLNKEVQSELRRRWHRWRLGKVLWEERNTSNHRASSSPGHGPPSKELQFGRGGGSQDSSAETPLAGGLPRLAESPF
# Experiment: cell-based or functional assay
row,Binder,hGluc-R EC50 (pM)
1,B1,4590
2,B2,568
3,B3,2650
4,B4,43.5
5,B5,1630
